Experimental data from US12281155 (INSTITUT PASTEUR, dated 2025).

Legend:
[1] = target: T1, recombinant SARS-CoV-2 Spike RBD domain, Delta variant (SARS-CoV-2); assay: ELISA on coated RBD
T1 construct: also called RBD Delta variant

[2] = target: T2, recombinant SARS-CoV-2 Spike RBD domain, BA.2 variant (SARS-CoV-2); assay: ELISA on coated RBD
T2 construct: also called RBD BA.2. variant

[3] = target: T3, recombinant SARS-CoV-2 Spike RBD domain, BA.2.75.2 variant (SARS-CoV-2); assay: ELISA on coated RBD
T3 construct: also called RBD BA.2.75.2 variant

[4] = target: T4, recombinant SARS-CoV-2 Spike RBD domain, BA.4/5 variant (SARS-CoV-2); assay: ELISA on coated RBD
T4 construct: also called RBD BA.4/5 variant

[5] = target: T5, recombinant SARS-CoV-2 Spike RBD domain, BQ.1.1 variant (SARS-CoV-2); assay: ELISA on coated RBD
T5 construct: also called RBD BQ.1.1. variant

[6] = target: T6, recombinant SARS-CoV-2 Spike RBD domain, XBB.1.5 variant (SARS-CoV-2); assay: ELISA on coated RBD
T6 construct: also called RBD XBB.1.5 variant

[7] = target: T7, recombinant SARS-CoV-2 Spike RBD domain, XBB.1.16 variant (SARS-CoV-2); assay: ELISA on coated RBD
T7 construct: also called RBD XBB.1.16 variant

[8] = target: T8, recombinant SARS-CoV-2 Spike RBD domain, EG.5 variant (SARS-CoV-2); assay: ELISA on coated RBD
T8 construct: also called RBD EG.5.1 variant

[9] = target: T9, recombinant SARS-CoV-2 Spike RBD domain, BA.2.86 variant (SARS-CoV-2); assay: ELISA on coated RBD
T9 construct: also called RBD BA.2.86 variant

[10] = target: T10, recombinant SARS-CoV-2 Spike RBD domain, JN-1 variant (SARS-CoV-2); assay: ELISA on coated RBD
T10 construct: also called RBD JN-1 variant

[11] = target: Spike protein of SARS-CoV-2 strain D614G (hCoV-19/France/GE1973/2020) (SARS-CoV-2, UniProt P0DTC2 14-1273); assay: cell-based or functional assay
[12] = target: Spike protein of SARS-CoV-2 strain XBB.1.5 (GISAID EPI_ISL_16353849) (SARS-CoV-2); assay: cell-based or functional assay
[13] = target: Spike protein of SARS-CoV-2 strain XBB.1.16 (hCoV-19/France/GES-IPP7712/2023) (SARS-CoV-2); assay: cell-based or functional assay
[14] = target: Spike protein of SARS-CoV-2 strain BA.2.86 (hCoV-19/France/IDF-IPP17625/2023) (SARS-CoV-2); assay: cell-based or functional assay
[15] = target: Spike protein of SARS-CoV-2 strain EG.5.1 (hCoV-19/France/GES-IPP15954/2023) (SARS-CoV-2); assay: cell-based or functional assay
[16] = target: Spike protein of SARS-CoV-2 strain JN.1 (hCoV-19/France/HDF-IPP21391/2023) (SARS-CoV-2); assay: cell-based or functional assay
[17] = target: T1, recombinant SARS-CoV-2 Spike RBD …; assay: competition ELISA, blocking of RBD binding to ACE2 ectodomain
[18] = target: T2, recombinant SARS-CoV-2 Spike RBD …; assay: as above
[19] = target: T3, recombinant SARS-CoV-2 Spike RBD …; assay: as above
[20] = target: T4, recombinant SARS-CoV-2 Spike RBD …; assay: as above
[21] = target: T5, recombinant SARS-CoV-2 Spike RBD …; assay: as above
[22] = target: T6, recombinant SARS-CoV-2 Spike RBD …; assay: as above
[23] = target: T7, recombinant SARS-CoV-2 Spike RBD …; assay: as above
[24] = target: T8, recombinant SARS-CoV-2 Spike RBD …; assay: as above
[25] = target: T9, recombinant SARS-CoV-2 Spike RBD …; assay: as above
[26] = target: T10, recombinant SARS-CoV-2 Spike RBD …; assay: as above

Binder	Binding AUC [1]	Binding AUC [2]	Binding AUC [3]	Binding AUC [4]	Binding AUC [5]	Binding AUC [6]	Binding AUC [7]	Binding AUC [8]	Binding AUC [9]	Binding AUC [10]	IC50, S-Fuse neutralization of live virus [11] [µg/mL]	IC50, S-Fuse neutralization of live virus [12] [µg/mL]	IC50, S-Fuse neutralization of live virus [13] [µg/mL]	IC50, S-Fuse neutralization of live virus [14] [µg/mL]	IC50, S-Fuse neutralization of live virus [15] [µg/mL]	IC50, S-Fuse neutralization of live virus [16] [µg/mL]	Blocking % [17] [%]	Blocking % [18] [%]	Blocking % [19] [%]	Blocking % [20] [%]	other results
SPK002M B1 antibody (antibody, human IgG1, kappa, V domains shown) VH: EVQLVESGGGLIQPGGSLRLSCAASIITVTSNYMSWVRQAPGKGLEWVSVIYPGGSTFYADSVKGRFTISYDNSKNTLYLQMNSLRAEDTAVYYCARDLVVYGMDVWGQGTTVTVSS VL: EIVLTQSPGTLSLSPGERATLSCRASQSVSDSYLAWYQQKPGQAPRLLIYGASSRATGIPGRFSGSGSGTDFTLTISRLEPEDFAIYYCQYGVTFGGGTKVEIKR	33	29	30	31	31	31	30	33	39	38	0.11	0.07	0.18	0.03	0.19	4.1	91	95	91	95	Blocking % [21]: 97%; Blocking % [22]: 97%; Blocking % [23]: 97%; Blocking % [24]: 95%; Blocking % [25]: 94%; Blocking % [26]: 66%
SPK002M C2 antibody (antibody, human IgG1, kappa, V domains shown) VH: EVQLVESGGGLIQPGGSLRLSCAASIITVTSNYMSWVRQAPGKGLEWVSVAYPGGSTFYADSVKGRFTISTDNSKNTLYLQMNSLRAEDTAVYYCARDLVVYGMDVWGQGTTVTVSS VL: EIVLTQSPGTLSLSPGERATLSCRASQSVSSSYLAWYQQKPGQAPRLLIYGASSRATGIPGRFSGSGSGTDFTLTISRLEPEDFAVYYCQQGVTFGGGTKVEIKR	32	23	28	30	31	31	29	32	38	33	0.06	0.14	0.21	0.05	2.16	53.8	90	93	92	93	Blocking % [21]: 95%; Blocking % [22]: 93%; Blocking % [23]: 93%; Blocking % [24]: 89%; Blocking % [25]: 91%; Blocking % [26]: 28%
SPK002M C1 antibody (antibody, human IgG1, kappa, V domains shown) VH: EVQLVESGGGLIQPGGSLRLSCAASIITVTSNYMSWVRQAPGKGLEWVSVAYPGGSTFYADSVKGRFTISTDNSKNTLYLQMNSLRAEDTAVYYCARDLVVYGMDVWGQGTTVTVSS VL: EIVLTQSPGTLSLSPGERATLSCRASQSVSDSYLAWYQQKPGQAPRLLIYGASSRATGIPGRFSGSGSGTDFTLTISRLEPEDFAVYYCQYGVTFGGGTKVEIKR	32	28	28	30	31	31	29	32	38	39	0.08	0.07	0.12	0.03	0.16	1.73	94	95	95	97	Blocking % [21]: 97%; Blocking % [22]: 96%; Blocking % [23]: 96%; Blocking % [24]: 96%; Blocking % [25]: 96%; Blocking % [26]: 83%
SPK002M B2 antibody (antibody, human IgG1, kappa, V domains shown) VH: EVQLVESGGGLIQPGGSLRLSCAASIITVTSNYMSWVRQAPGKGLEWVSVIYPGGSTFYADSVKGRFTISYDNSKNTLYLQMNSLRAEDTAVYYCARDLVVYGMDVWGQGTTVTVSS VL: EIVLTQSPGTLSLSPGERATLSCRASQSVSSSYLAWYQQKPGQAPRLLIYGASSRATGIPGRFSGSGSGTDFTLTISRLEPEDFAIYYCQQGVTFGGGTKVEIKR	32	26	29	30	31	32	30	32	39	28	0.09	0.14	0.32	0.19	5.53	85.8	88	92	91	91	Blocking % [21]: 95%; Blocking % [22]: 92%; Blocking % [23]: 92%; Blocking % [24]: 70%; Blocking % [25]: 86%; Blocking % [26]: 0%
SPK002M C3 antibody (antibody, human IgG1, kappa, V domains shown) VH: EVQLVESGGGLIQPGGSLRLSCAASIITVTSNYMSWVRQAPGKGLEWVSVIYPGGSTFYADSVKGRFTISTDNSKNTLYLQMNSLRAEDTAVYYCARDLVVYGMDVWGQGTTVTVSS VL: EIVLTQSPGTLSLSPGERATLSCRASQSVSSSYLAWYQQKPGQAPRLLIYGASSRATGIPGRFSGSGSGTDFTLTISRLEPEDFAVYYCQQGVTFGGGTKVEIKR	33	19	29	32	31	32	31	33	38	29	0.08	0.13	0.3	0.33	6.08	60.1	95	94	94	94	Blocking % [21]: 94%; Blocking % [22]: 90%; Blocking % [23]: 90%; Blocking % [24]: 81%; Blocking % [25]: 90%; Blocking % [26]: 0%
